Measurements published in patent publication JP2015097496A (dated 2015).
Blank lines part the entries; values can stand above or below the binder they belong to.

Tests used:
[1] = target: T1, Robo1 IG5-2ドメイン(B5209B抗体が認識するイムノグロブリン様ドメインの5番目) (Homo sapiens (Human), UniProt Q9Y6N7 455-543); experiment: ITC with molecular dynamics interpretation
T1 construct: Antigen fragment of Robo1 used in ITC and in the co-crystal structure
T1 sequence: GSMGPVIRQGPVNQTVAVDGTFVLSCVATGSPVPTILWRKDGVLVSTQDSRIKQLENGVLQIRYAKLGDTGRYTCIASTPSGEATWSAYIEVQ

[2] = target: T1, Robo1 …; experiment: ITC, thermodynamic parameters
[3] = target: T1, Robo1 …; experiment: co-crystal structure of scFv and IG5-2

- binding result [1]: binds
B1: B5209B scFv HP103A変異体 (scFv)
scFv: QLVESGGGVVQPGGSLKLSCAASGFTFSTYDMSWVRQTPDKRLELVATINSNGGSTYYPDSVKGRFTSSRDNAKNILYLQMSSLKSEDTAMYYCAREALLRPAYYALDYWGQGTSVTVSSGGGGSGGGGSGGGGSGGGGSDIQMTQSPASLSASVGETVTITCGASENIYGALTWYQRKQGKSPQLLIYGAINLADDKSSRFSGSGSGRQYSLKISSLHPDDVATYYCQNVLSTPFTFGSGTKLEIKHHHHHH

- binding result [2]: binds
B2: B5209B scFv LY30A変異体 (scFv)
scFv: QLVESGGGVVQPGGSLKLSCAASGFTFSTYDMSWVRQTPDKRLELVATINSNGGSTYYPDSVKGRFTSSRDNAKNILYLQMSSLKSEDTAMYYCAREALLRPPYYALDYWGQGTSVTVSSGGGGSGGGGSGGGGSGGGGSDIQMTQSPASLSASVGETVTITCGASENIAGALTWYQRKQGKSPQLLIYGAINLADDKSSRFSGSGSGRQYSLKISSLHPDDVATYYCQNVLSTPFTFGSGTKLEIKHHHHHH

- binding result [3]: binds
B3: B5209B 一本鎖抗体(scFv) 野生型 (scFv)
scFv: MAEVQLVESGGGVVQPGGSLKLSCAASGFTFSTYDMSWVRQTPDKRLELVATINSNGGSTYYPDSVKGRFTSSRDNAKNILYLQMSSLKSEDTAMYYCAREALLRPPYYALDYWGQGTSVTVSSAGGGGSGGGGSGGGGSGGGGSDILDIQMTQSPASLSASVGETVTITCGASENIYGALTWYQRKQGKSPQLLIYGAINLADDKSSRFSGSGSGRQYSLKISSLHPDDVATYYCQNVLSTPFTFGSGTKLEIKAAGHHHHHH
notes: Expressed in E. coli Origami2(DE3) from pRA2; also called B5209B scFv; WT
